Experimental findings from US20220233552A1 (CONSEJO SUPERIOR DE INVESTIGACIONES CIENT FICAS CSIC, published 2022) are described below.

Experiment [1] deals with T1, protein tyrosine phosphatase-1B (PTP1B) (human, UniProt P18031 1-435).
T1 construct: Endogenous PTP1B of the cell lines, detected by co-immunoprecipitation, Western blot and mass spectrometry; also called PTPB1
T1 sequence (looked up): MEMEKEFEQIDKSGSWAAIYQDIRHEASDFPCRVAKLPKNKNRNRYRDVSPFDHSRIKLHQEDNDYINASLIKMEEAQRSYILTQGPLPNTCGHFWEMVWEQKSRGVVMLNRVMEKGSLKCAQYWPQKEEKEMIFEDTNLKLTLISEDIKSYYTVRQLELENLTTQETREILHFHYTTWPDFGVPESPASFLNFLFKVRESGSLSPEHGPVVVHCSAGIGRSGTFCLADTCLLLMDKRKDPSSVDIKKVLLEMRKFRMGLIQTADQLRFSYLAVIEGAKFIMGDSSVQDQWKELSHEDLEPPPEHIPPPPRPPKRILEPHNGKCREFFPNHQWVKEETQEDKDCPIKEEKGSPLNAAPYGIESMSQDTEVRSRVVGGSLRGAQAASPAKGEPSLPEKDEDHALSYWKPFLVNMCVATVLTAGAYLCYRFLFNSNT
The experiment in a line: IL13Rα2 immunoprecipitation with mass spectrometry (U251 lysates) and reciprocal co-IP/Western blot in CRC, GBM and OC cell lines. From the text: (§1) FIG. 1. […] Protein position was tentatively assigned based on existing literature.
To characterize the protein interaction network of IL13Rα2, whole-cell lysates of the human GBM cell line U251 were immunoprecipitated and analyzed by mass spectrometry.
On the technique in general: A western blot detects proteins with antibodies after separation by electrophoresis.

For experiment [2], the target named is T1, protein tyrosine phosphatase-1B (PTP1B). The experiment can be described thus: co-immunoprecipitation (IL13Rα2 IP, PTP1B Western blot) in RKO transfectants.
Source text: as §1

B1: IL13Rα2 (wild type) (receptor, human, UniProt Q14627 27-380, looked up)
chain: DTEIKVNPPQDFEIVDPGYLGYLYLQWQPPLSLDHFKECTVEYELKYRNIGSETWKTIITKNLHYKDGFDLNKGIEAKIHTLLPWQCTNGSEVQSSWAETTYWISPQGIPETKVQDMDCVYYNWQYLLCSWKPGIGVLLDTNYNLFYWYEGLDHALQCVDYIKADGQNIGCRFPYLEASDYKDFYICVNGSSENKPIRSSYFTFQLQNIVKPLPPVYLTFTRESSCEIKLKWSIPLGPIPARCFDYEIEIREDDTTLVTATVENETYTLKTTNETRQLCFVVRSKVNIYCSDDGIWSEWSDKQCWEGEDLSKKTLLRFWLPFGFILILVIFVTGLLLRKPNTYPKMIPEFFCDT
notes: whole, on cells; Used as endogenous protein in lysates of human CRC, GBM and OC cell lines and as transfected wild type in RKO cells; also called IL13Rα2 WT; wild-type IL13Rα2
As to B1, the binding result in experiment [1] is reported as “binds”.

B2: IL13Rα2 Tyr369Phe mutant (receptor, human, UniProt Q14627 27-380, looked up)
chain: DTEIKVNPPQDFEIVDPGYLGYLYLQWQPPLSLDHFKECTVEYELKYRNIGSETWKTIITKNLHYKDGFDLNKGIEAKIHTLLPWQCTNGSEVQSSWAETTYWISPQGIPETKVQDMDCVYYNWQYLLCSWKPGIGVLLDTNYNLFYWYEGLDHALQCVDYIKADGQNIGCRFPYLEASDYKDFYICVNGSSENKPIRSSYFTFQLQNIVKPLPPVYLTFTRESSCEIKLKWSIPLGPIPARCFDYEIEIREDDTTLVTATVENETYTLKTTNETRQLCFVVRSKVNIYCSDDGIWSEWSDKQCWEGEDLSKKTLLRFWLPFGFILILVIFVTGLLLRKPNTFPKMIPEFFCDT
notes: whole, on cells; immunoprecipitated from lysates; also called Y369F mutated form; mutant Tyr369Phe
Consider B2, for which the binding result in experiment [2] is reported as “no binding”.
